The RNAGym collection of RNA variant scans (doi:10.1101/gr.219683.116)

B1: mRNA-splicing (parent)
chain: AGUUGCUGCUGGGAGCUCCAGCACAGUGAAAUGGACAGAAGGGCAGAGCAA

Variants of: B1
Assay: exon inclusion enrichment index; higher = more inclusion; WT1 exon 5 minigene, HEK293

Row | Variant | exon inclusion enrichment index
1 | G5U G8U C9U C24G A25C | 0.663
2 | U4G G5A C6A U7A C9A U10A | 0.315
3 | G5C C6G U7C U10C C36G A37U | 2.09
4 | G5A U7C G8A U10C G26A U27C | 3.43
5 | G5A C6U U7A G8U C9A A25U | 0.138
6 | G5C C6A U7C G8A U10A C19G | 0.078
7 | G13U A14C | 0.0646
8 | G5A C6G U7G G8A U10C | 0.159
9 | G5C C6G U7C U10C A20U G21U | 2.35
10 | G5C C6G U7C U10C G46U A47C | 3.73
11 | G5U G8U C9U G43U C44G | 0.112
12 | G5C C6A U7C G8A U10A A40U G41C | 0.451
13 | G5C C6A U7C G8A U10A G46C | 0.0718
14 | U4C G5U C6G U7G C9A | 0.461
15 | G5U G8U C9U G33C G34U | 0.0844
16 | A31U U32C | 0.301
17 | G5U G8U C9U A45C G46U | 0.0571
18 | U4C G5A C6G U7C U10C | 3.53
19 | G5C C6U G8C C9U U10C A40C G41C | 2.97
20 | G5C C6G U7C U10C G28C A29C | 2.81
21 | G5C C6A U7C G8A U10A C18A C19U | 0.00173
22 | G5C C6U G8C C9U U10C G15A C16A | 1.24
23 | C6A U7C C9A U10C A23C C24U | 2.26
24 | G5A U7C G8A U10C G11U G12A | 0.117

Row | Variant | exon inclusion enrichment index
25 | G5A U7C G8A U10C G11U G12C | 0.738
26 | G28A A29U | 0.00899
27 | C6A U7C C9A U10C C22U A23U | 2.51
28 | G5C C6A U7C G8A U10A A20C | 0.142
29 | C6A U7C C9A U10C U17A C18U | 2.9
30 | C6A U7A G8C C9A U10A | 0.471
31 | C6A U7A C9A U10A A29U A30G | 0.739
32 | G5A C6G U7G C9A C22G A23G | 0.00134
33 | U3A U4C C6A U7A C9A U10A | 1.27
34 | C6A U7C C9A U10C G34A A35G | 2.05
35 | C6A U7A C9A U10A G41C G42C | 2.14
36 | G8A C9A | 0.383
37 | G5C C6U G8C C9U U10C C22U A23G | 2.04
38 | G5A U7A G8U U10C | 1.96
39 | G5A U7C G8A U10C G46C A47C | 1.81
40 | C6A U7C C9A U10C G41U | 3.1
41 | G5C C6G U7C C9U U10A | 0.144
42 | G5C C6A U7C G8A U10A C44G A45C | 0.204
43 | G5U G8U C9U A45U G46C | 0.11
44 | C6A U7A C9A U10A A14U G15A | 0.217
45 | G5A C6G U7G C9A G41U G42U | 0.00223
46 | A25G G26U | 0.326
47 | A25G G26A | 0.573
48 | G5C C6U G8C C9U U10C G42C G43A | 2.79

Row | Variant | exon inclusion enrichment index
49 | C6A U7A C9A U10A A39C A40U | 0.533
50 | U17G C18U | 1.5
51 | G5A C6U U7A G8U C9A C24A A25C | 0.405
52 | C6A U7A C9A U10A C16A U17G | 0.312
53 | G5C C6G U7C U10A | 1.02
54 | A37C G38U | 0.0604
55 | G5U G8U C9U C22G A23U | 0.0132
56 | G5C C6G U7C U10C C16G U17A | 4.71
57 | G5U G8U C9U A25C G26U | 0.328
58 | G5U G8U C9U U32A G33A | 0.0443
59 | G5A C6G U7G C9A A35G C36A | 0.00181
60 | G5A C6G U7G C9A A47U G48C | 0.000966
61 | G5C C6A U7C G8A U10A C24G A25C | 0.71
62 | G5A U7C G8A U10C G41C G42U | 3.05
63 | G5C C6A U7C G8A U10A C16U U17G | 0.0279
64 | G5C C6A U7C G8A U10A C16U U17A | 0.048
65 | G5A U7C G8A U10C G13A A14U | 2.87
66 | G5U G8U C9U C18A | 0.0931
67 | G5C C6A U7C G8A U10A G41C G42U | 0.481
68 | G5U G8U C9U A31C U32C | 0.544
69 | G5U G8U C9U A31C U32G | 0.188
70 | G5A C6G U7G C9A G13U A14U | 0.000524
71 | G5A C6G U7G C9A G13U A14C | 0.00403
72 | C6A U7C C9A U10C A40U G41C | 3.18

Row | Variant | exon inclusion enrichment index
73 | U4G G5U C6U G8C C9U U10C | 0.824
74 | G5U G8U C9U C36G A37C | 0.0336
75 | G5A C6U U7A G8U C9A C19U A20C | 0.078
76 | C6A U7C C9A U10C A37G | 4.15
77 | U3A U4C G5A C6U U7A G8U C9A | 0.3
78 | C6A U7A C9A U10A G15C | 1.25
79 | G5C C6G U7G G8C C9U U10C | 2.15
80 | G5A C6G U7G C9A A30U | 0.00076
81 | G5C C6G U7C U10C U32G G33C | 3.31
82 | G5A C6G U7G C9A A20C G21A | 0.00106
83 | G5A C6A U7C C9A | 0.838
84 | G5A U7C G8A U10C U27A G28C | 2.42
85 | G5A C6U U7A G8U C9A A31U | 0.0565
86 | G5U G8U C9U A25U G26A | 0.176
87 | G5U G8U C9U A25U G26U | 0.0927
88 | U3C U4A G5A C6U U7A G8U C9A | 0.17
89 | U3A U4G | 0.0422
90 | C6A U7C C9A U10C C18G C19U | 1.28
91 | G5A U7C G8A U10C G12U G13U | 0.053
92 | G5C C6A U7C G8A U10A G41A G42U | 0.105
93 | G5C C6A U7C G8A U10A G41A G42C | 0.264
94 | G5A U7C G8A U10C G46A A47U | 2.29
95 | G5A U7C G8A U10C A37U G38A | 0.876
96 | G5C C6U G8C C9U U10C G43C | 1.75

Row | Variant | exon inclusion enrichment index
97 | G5C C6U G8C C9U | 1.16
98 | G5U G8U C9U C16U U17A | 0.0519
99 | G5U G8U C9U C24U A25C | 0.987
100 | G5A C6U U7A G8U C9A U10C G11U | 0.148
101 | G5C C6A U7A C9A U10A | 0.906
102 | C6A U7C C9A U10A G11C | 2.78
103 | G5A C6U U7A G8U C9A G34A A35U | 0.00832
104 | G5C C6A U7C G8A U10A C22U A23G | 0.114
105 | G5A U7C G8A U10C G34C A35C | 0.149
106 | G5U G8U C9U G28A | 0.0119
107 | G5A U7C G8A U10C C22U A23G | 2.69
108 | G5A C6U U7A G8U C9A A31C U32A | 0.0278
109 | G5C C6U G8C C9U U10C A37C G38A | 1.63
110 | G5C C6A U7C G8A U10A C44U | 0.0254
111 | G5A C6U U7A G8U C9A U32A G33U | 0.0199
112 | G5U U7C G8A C9U | 0.504
113 | G5A U7C G8A U10C U17G | 1.81
114 | G5A U7C G8A U10C U17C | 1.62
115 | G5A U7C G8A U10C C16A U17C | 1.83
116 | C6A U7C C9A U10C A37U G38U | 1.27
117 | G5A U7C G8A U10C G11A G12U | 0.486
118 | C6A U7A C9A U10A A20U G21U | 0.376
119 | G5A C6G U7G C9A A20U G21U | 0.000871
120 | G5C C6G U7C U10C U27C G28C | 4.03

Row | Variant | exon inclusion enrichment index
121 | A20U G21U | 1.91
122 | A20U G21A | 1.45
123 | G43A C44G | 0.723
124 | G43A C44U | 0.129
125 | C6A U7C C9A U10C G13U A14U | 2.48
126 | C6A U7C C9A U10C G12U G13A | 1.25
127 | G5C C6A U7C G8A U10A A47U | 0.108
128 | G5A C6U U7G G8A C9A | 0.546
129 | G5C C6A U7C G8A U10A C36U A37U | 0.0725
130 | G5C C6G U7C U10C C44U | 1.47
131 | C6A U7G G8U C9A U10A | 0.0118
132 | G5C C6U G8C C9U U10C G34U A35C | 0.683
133 | G5A U7C G8A U10C G12A G13U | 0.132
134 | G5A U7C G8A U10C G15U C16A | 1.58
135 | C6A U7C C9A U10C A29U | 1.74
136 | C6A U7C C9A U10C U27C G28C | 3.85
137 | G5A U7C G8A U10C G11C G12C | 0.415
138 | G5C C6G U7C U10C G41C G42U | 4.21
139 | C6A U7C C9A U10C G28U A29G | 3.18
140 | C6A U7C C9A U10C A31U U32A | 0.902
141 | G5C C6A U7C G8A U10A U27A G28A | 0.112
142 | G5C C6G U7C U10C G26U U27C | 4.3
143 | G5A C6U U7A G8U C9A A45C G46A | 0.0341
144 | G5A C6G U7G C9A C24U A25C | 0.0183

Row | Variant | exon inclusion enrichment index
145 | G26U U27C | 0.588
146 | G5A C6G U7G C9A U17C C18A | 0.00107
147 | G5C C6U G8C C9U U10C G26U U27A | 0.886
148 | G5U G8U C9U G28U A29U | 0.0195
149 | G5A U7C G8A U10C A47C G48U | 2.34
150 | G5C C6A U7C G8A U10A G11U G12A | 0.0375
151 | G5C C6G U7C U10C A14G | 1.93
152 | G5C C6U G8C C9U U10C G34C | 0.84
153 | C6A U7A C9A U10A C24G A25C | 2.12
154 | G33U G34C | 0.0208
155 | C6A U7C C9A U10C C22G | 3.9
156 | C6A U7C C9A U10C G38U A39G | 1.89
157 | G5C C6U G8C C9U U10C G26C U27G | 3.22
158 | U4A C6A U7C G8A U10A | 0.0102
159 | C6A U7C C9A U10C C19U A20U | 2.13
160 | G5C C6G U7C U10C G26U | 3.19
161 | U3G U4C G5C C6A U7C G8A U10A | 0.139
162 | G5A C6G U7G C9A C36G A37G | 0.00376
163 | G5C C6U G8C C9U U10C C44U A45U | 1.28
164 | G5C C6G U7C U10C A29C A30C | 3.82
165 | G5C C6G U7C U10C A29C A30G | 5.17
166 | G5C C6G U7C U10C C36A A37C | 3.59
167 | G5C C6A U7C G8A U10A A29U A30U | 0.0185
